Laboratory results as given in PMC10687086, “Illuminating the mechanism and allosteric behavior of NanoLuc luciferase” (Nature Communications, 2023).
Positions count from the first letter of the chain named. Numbers in names are those of the source.

B1: NanoLuc luciferase (NLuc) (Oplophorus gracilirostris; A31E/A60N/A81I/F95D/I117V/K70R/L54V/L99Q/M102K/N193R/P142E/Q151K/Q38R/Q45L/V71I/Y121A/Y165I) (protein)
chain: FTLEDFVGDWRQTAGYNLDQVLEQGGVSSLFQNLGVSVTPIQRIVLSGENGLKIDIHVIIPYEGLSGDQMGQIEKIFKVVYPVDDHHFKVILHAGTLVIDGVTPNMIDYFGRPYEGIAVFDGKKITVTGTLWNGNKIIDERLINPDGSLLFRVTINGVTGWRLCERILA
notes: engineered 19 kDa catalytic subunit of OLuc (16 residues mutated); monomer in solution, homotetramer in crystals
B2: NanoLuc luciferase (NLuc) (Oplophorus gracilirostris; A31E/A60N/A81I/D36R/F95D/I117V/K116R/K70R/L54V/L99Q/M102K/N193R/P142E/Q151K/Q38R/Q45L/V71I/Y165I) (protein)
chain: B1 chain with D9R, K89R, A94Y
notes: as for B1
B3: NanoLuc luciferase (NLuc) (Oplophorus gracilirostris; A31E/A60N/A81I/D36R/F95D/H84A/I117V/K116R/K70R/L54V/L99Q/M102K/N193R/P142E/Q151K/Q38R/Q45L/V71I/Y165I) (protein)
chain: B1 chain with D9R, H57A, K89R, A94Y
notes: as for B1

Columns and labels:
Assay in all cases: luminescence, global fit of progress curves
Format in all cases: biochemical, Oplophorus gracilirostris
Settings in all cases: 100 mM potassium phosphate pH 7.50, 37 °C, co-substrate O2, pH 7.5
[1] = substrate: O=c1c(Cc2ccco2)nc2c(Cc3ccccc3)[nH]c(-c3ccccc3)cn1-2
Source text: (§1) luminescence, global fit of progress curves on NanoLuc luciferase (NLuc)

[2] = substrate: Oc1ccc(Cc2nc3c(Cc4ccccc4)nc(-c4ccc(O)cc4)cn3c2O)cc1
Source text: as §1

[3] = substrate: O=c1c(Cc2ccco2)nc2c(Cc3ccccc3)[nH]c(-c3ccccc3)cn1-2; remark: listed apart in the source
[4] = substrate: Oc1ccc(Cc2nc3c(Cc4ccccc4)nc(-c4ccc(O)cc4)cn3c2O)cc1; remark: listed apart in the source

| Protein | Km [1] | kcat [1] | kcat/Km [1] | Km [2] | kcat [2] | kcat/Km [2] | Km [3] | kcat [3] | kcat/Km [3] | Km [4] | kcat [4] | kcat/Km [4] |
| --- | --- | --- | --- | --- | --- | --- | --- | --- | --- | --- | --- | --- |
| B1 | 1.29 ± 0.02 µM | 0.519 ± 0.007 s⁻¹ | 402000 ± 6000 M⁻¹ s⁻¹ | 3.74 ± 0.09 µM | 0.225 ± 0.004 s⁻¹ | 60000 ± 1000 M⁻¹ s⁻¹ |  |  |  |  |  |  |
| B2 |  |  |  |  |  |  | 0.157 ± 0.009 µM | 5.2 ± 0.1 s⁻¹ | 3.3e+07 ± 2e+06 M⁻¹ s⁻¹ | 0.46 ± 0.01 µM | 16.8 ± 0.6 s⁻¹ | 3.7e+07 ± 1e+06 M⁻¹ s⁻¹ |
| B3 |  |  |  | 0.77 ± 0.07 µM | 40 ± 4 s⁻¹ | 7e+07 ± 7e+06 M⁻¹ s⁻¹ |  |  |  |  |  |  |
